From the supplement of paper PMC11780869 come the findings set out here.

For the data set, the system named is Bacillus subtilis. Kind of data set: cleaved RNA product abundance (RNA/gDNA barcode ratio) relative to median wild-type variant (ratio to wild type); higher = more accumulation of the downstream cleavage product. The conditions noted are these: cleavage site: cggR-gapA (positions -7 to +36 mutated). The procedure, abridged: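 In LB at 37°C, B. subtilis cultures went from OD600 0.0003 to 0.3. Their chromosomes held barcoded reporter mRNAs, truncated aprE or tetM, with RNase Y cleavage-site windows mutagenized via oligos at a 9% error rate. Cleaved RNA, chosen by gel, was reverse transcribed and barcode-sequenced alongside genomic DNA barcodes with UMI collapsing, giving a per-construct RNA:gDNA ratio scaled to the median construct with the unmutated site. This scaled ratio is termed cleaved product abundance.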

Where [1] appears, read: experiment (reporter, strain, medium): exp 2b: truncated aprE reporter, strain BJT200.
The mark [2] stands for this setting: experiment (reporter, strain, medium): exp 4a: truncated aprE reporter, strain BJT201 with 2% xylose (RNase J1 expressed).

“ACAGACGAAGGAGCCGCAAAGAAGTTATTAAGGCATGAATAATCACTCAATATAAATATCTCTCACTTATTTAAA”: the “cleaved RNA product abundance” value runs as follows: under setting [1], 0.118; under setting [2], 0.0873.

For “ACAGACGAAGGAGCCGCAAAGAAGTTATTAAGGCATGAATAATCCATCAATATAAATATCTCTCACTTATTTAAA”, the “cleaved RNA product abundance” value runs as follows: under setting [1], 0.102; under setting [2], 0.114.

Regarding “ACAGACGAAGGAGCCGCAAAGAAGTTATTAAGGCATGAATAATCCCACAATATAAATATCTCTCACTTATTTAAA”, the “cleaved RNA product abundance” value was 0.0968 under setting [1] and 0.0597 under setting [2].

Take “ACAGACGAAGGAGCCGCAAAGAAGTTATTAAGGCATGAATAATCCCCCAATATAAATATCTCTCACTTATTTAAA”: the “cleaved RNA product abundance” value is, setting by setting: under setting [1], 0.11; under setting [2], 0.0993.

Turning to “ACAGACGAAGGAGCCGCAAAGAAGTTATTAAGGCATGAATAATCCCTAAATATAAATATCTCTCACTTATTTAAA”, the “cleaved RNA product abundance” value under setting [1] was 0.114 and the “cleaved RNA product abundance” value under setting [2] was 0.151.

On to “ACAGACGAAGGAGCCGCAAAGAAGTTATTAAGGCATGAATAATCCCTCAAAATAAATATCTCTCACTTATTTAAA”, for which the “cleaved RNA product abundance” value under setting [1] was determined as 0.0982 and the “cleaved RNA product abundance” value under setting [2] came out at 0.141.

Regarding “ACAGACGAAGGAGCCGCAAAGAAGTTATTAAGGCATGAATAATCCCTCAACATAAATATCTCTCACTTATTTAAA”, the “cleaved RNA product abundance” value runs as follows: under setting [1], 0.119; under setting [2], 0.112.

On to “ACAGACGAAGGAGCCGCAAAGAAGTTATTAAGGCATGAATAATCCCTCAAGATAAATATCTCTCACTTATTTAAA”, for which the “cleaved RNA product abundance” value was found to be 0.0843 under setting [1] and 0.142 under setting [2].

As for “ACAGACGAAGGAGCCGCAAAGAAGTTATTAAGGCATGAATAATCCCTCAATAAAAATATCTCTCACTTATTTAAA”, the “cleaved RNA product abundance” value under setting [2] was determined as 0.0606.

With “ACAGACGAAGGAGCCGCAAAGAAGTTATTAAGGCATGAATAATCCCTCAATACAAATATCTCTCACTTATTTAAA”, the “cleaved RNA product abundance” value under setting [2] is 0.058.

Turning to “ACAGACGAAGGAGCCGCAAAGAAGTTATTAAGGCATGAATAATCCCTCAATAGAAATATCTCTCACTTATTTAAA”, the “cleaved RNA product abundance” value under setting [2] was 0.0906.

As for “ACAGACGAAGGAGCCGCAAAGAAGTTATTAAGGCATGAATAATCCCTCAATATAAAAATCTCTCACTTATTTAAA”, the “cleaved RNA product abundance” value under setting [2] was 0.0882.

“ACAGACGAAGGAGCCGCAAAGAAGTTATTAAGGCATGAATAATCCCTCAATATAAATAACTCTCACTTATTTAAA”: the “cleaved RNA product abundance” value stood at 0.0904 under setting [1] and 0.111 under setting [2].

With “ACAGACGAAGGAGCCGCAAAGAAGTTATTAAGGCATGAATAATCCCTCAATATAAATAGCTCTCACTTATTTAAA”, the “cleaved RNA product abundance” value is 0.0721 under setting [1] and 0.0902 under setting [2].

For the sequence “ACAGACGAAGGAGCCGCAAAGAAGTTATTAAGGCATGAATAATCCCTCAATATAAATATCTCTCACTATTTAAAG”, the “cleaved RNA product abundance” value under setting [2] worked out at 0.146.

For the sequence “ACAGACGAAGGAGCCGCAAAGAAGTTATTAAGGCATGAATAATCCCTCAATATAAATATCTCTCACTTATTTAAA”, the “cleaved RNA product abundance” value turned out to be 0.0901 under setting [1]; 0.125 under setting [2]; 0.124 (experiment (reporter, strain, medium): exp 6: tetM reporter, strain 168).

With “ACAGACGAAGGAGCCGCAAAGAAGTTATTAAGGCATGAATAATCCCTCAATATAAATTTCTCTCACTTATTTAAA”, the “cleaved RNA product abundance” value is 0.0999 under setting [1] and 0.0847 under setting [2].

Turning to “ACAGACGAAGGAGCCGCAAAGAAGTTATTAAGGCATGAATAATCCCTCAATATAATTATCTCTCACTTATTTAAA”, the “cleaved RNA product abundance” value was 0.0921 under setting [1] and 0.095 under setting [2].

Turning to “ACAGACGAAGGAGCCGCAAAGAAGTTATTAAGGCATGAATAATCCCTCAATATACATATCTCTCACTTATTTAAA”, the “cleaved RNA product abundance” value was found to be 0.112 under setting [1] and 0.129 under setting [2].

With “ACAGACGAAGGAGCCGCAAAGAAGTTATTAAGGCATGAATAATCCCTCAATATATATATCTCTCACTTATTTAAA”, the “cleaved RNA product abundance” value by setting is: under setting [1], 0.106; under setting [2], 0.11.
